From patent publication US20250011363A1, “OPTIMIZED SHORTENED PEPTIDE THAT BINDS TO ACETYLCHOLINE RECEPTOR, AND USE THEREOF” (SKINMED CO., LTD., priority 2021, published 2025)

Target: acetylcholine receptor (Homo sapiens, UniProt P02708)
Test: SPR binding affinity (RU) of optimized 5mer/6mer/7mer peptides, Examples 6-7
Details: SPR, Resonance Units, peptides tested at 10 μM
Method in brief: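 Response units from SPR give the binding values listed. Each synthesized peptide was run at 10 μM over the receptor.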

Chain of acetylcholine receptor (P02708 21-457): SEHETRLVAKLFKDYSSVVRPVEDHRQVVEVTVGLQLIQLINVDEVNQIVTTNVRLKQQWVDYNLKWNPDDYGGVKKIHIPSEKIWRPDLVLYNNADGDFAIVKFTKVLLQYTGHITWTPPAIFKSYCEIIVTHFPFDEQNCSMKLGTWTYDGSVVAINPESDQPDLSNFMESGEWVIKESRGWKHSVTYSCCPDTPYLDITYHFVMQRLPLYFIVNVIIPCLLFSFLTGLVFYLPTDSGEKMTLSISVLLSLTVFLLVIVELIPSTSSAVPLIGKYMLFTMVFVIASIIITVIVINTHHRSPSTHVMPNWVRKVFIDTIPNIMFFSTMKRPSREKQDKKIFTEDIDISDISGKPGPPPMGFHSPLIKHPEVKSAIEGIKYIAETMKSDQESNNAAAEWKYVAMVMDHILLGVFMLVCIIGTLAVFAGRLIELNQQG

Substance	Binding affinity (6mer-2 Top sequence (Table 12)) [Ru]	Binding affinity (6mer-2 Top sequence) [Ru]
6mer-2-336 (KLITKR)	135	
6mer-2-337 (KQFQKK)	142	
6mer-2-338 (RSVQKR)	145	
6mer-2-339 (KQVYKK)	151	
6mer-2-340 (RRLTRR)	122	
6mer-2-341 (KVVTKR)	144	
6mer-2-342 (KRYRKK)	145	
6mer-2-343 (KQISKK)	146	
6mer-2-344 (KGIRRK)	148	
6mer-2-345 (KSRQKK)	148	
6mer-2-346 (KRFSKK)	153	
6mer-2-347 (RRYSKK)	148	
6mer-2-348 (KSQLRR)	153	
6mer-2-349 (RRLSRR)	137	
6mer-2-350 (RGQTRK)	148	
6mer-2-351 (KLYTKR)	135	
6mer-2-352 (RWFYRR)	137	
6mer-2-353 (RLQTKK)	137	
6mer-2-354 (RWISKK)	135	
6mer-2-355 (RGIRKK)	124	
6mer-2-356 (RLLQRR)	145	
6mer-2-357 (RGQRKK)	151	

Substance	Binding affinity (6mer-2 Top sequence (Table 12)) [Ru]	Binding affinity (6mer-2 Top sequence) [Ru]
6mer-2-358 (RQIYKK)	154	
6mer-2-359 (RLFCKK)	136	
6mer-2-360 (KGVRRR)	141	
6mer-2-361 (RSFQRR)	153	
6mer-2-362 (RGRQKR)	154	
6mer-2-363 (KSIYRK)	147	
6mer-2-364 (KVFTKK)	154	
6mer-2-365 (RWRYRR)	121	
6mer-2-366 (KQYYRR)	142	
6mer-2-367 (RWRSRR)	142	
6mer-2-368 (RLRTRR)	142	
6mer-2-369 (KVVRRR)	145	
6mer-2-370 (KSLLRR)	142	
6mer-2-371 (KRLSRR)	148	
6mer-2-372 (KLVQRR)	141	
6mer-2-373 (KLIYRK)	139	
6mer-2-374 (KRQLKK)	125	
6mer-2-375 (RVVQKK)	131	
6mer-2-376 (KQQCKR)	141	
6mer-2-377 (RRYCRR)	142	
6mer-2-378 (KRFQRK)	131	
6mer-2-379 (RGVQKR)	127	

Substance	Binding affinity (6mer-2 Top sequence (Table 12)) [Ru]	Binding affinity (6mer-2 Top sequence) [Ru]
6mer-2-380 (RLVYRK)	141	
6mer-2-381 (KVYRRR)	139	
6mer-2-382 (KSVSRR)	148	
6mer-2-383 (KLVRRK)	128	
6mer-2-384 (RSFQKK)	142	
6mer-2-385 (RGVCKR)	154	
6mer-2-386 (KWQSKR)	136	
6mer-2-387 (KWLCKK)	146	
6mer-2-388 (KRFQKK)	139	
6mer-2-389 (KSLYKK)	153	
6mer-2-390 (KWLRRR)	145	
6mer-2-391 (KQYQKR)	141	
6mer-2-392 (RQILKR)	149	
6mer-2-393 (RGLQRK)	145	
6mer-2-394 (KLVLKR)	141	
6mer-2-395 (KWRYRR)	148	
6mer-2-396 (KWLQRR)	122	
6mer-2-397 (RSIYRK)	154	
6mer-2-398 (RQQRRR)	141	
6mer-2-399 (RWLTRR)	148	
6mer-2-400 (RQIRRR)	154	
6mer-2-401 (RSILRK)	153	

Substance	Binding affinity (6mer-2 Top sequence (Table 12)) [Ru]	Binding affinity (6mer-2 Top sequence) [Ru]
6mer-2-402 (KRYSRR)	145	
6mer-2-403 (KGVLRK)		123
6mer-2-404 (RVLSKR)		121
6mer-2-405 (KGYRKK)		137
6mer-2-406 (KGIYRR)		139
6mer-2-407 (KQVSKR)		122
6mer-2-408 (KQIYRR)		139
6mer-2-409 (KRRRKR)		139
6mer-2-410 (KRFRKK)		153
6mer-2-411 (RSRQKK)		121
6mer-2-412 (KRFLKK)		139
6mer-2-413 (RLILKR)		136
6mer-2-414 (KWRQKK)		135
6mer-2-415 (KGRCKK)		149
6mer-2-416 (RWRLRR)		131
6mer-2-417 (RWVYKK)		151
6mer-2-418 (RVQYKK)		121
6mer-2-419 (RSRYKK)		154
6mer-2-420 (RRQYRK)		128
6mer-2-421 (KVICRK)		124
6mer-2-422 (RLITRR)		154
6mer-2-423 (RLQYRK)		154

Substance	Binding affinity (6mer-2 Top sequence (Table 12)) [Ru]	Binding affinity (6mer-2 Top sequence) [Ru]
6mer-2-424 (RLYCKK)		139
6mer-2-425 (KLQTKK)		145
6mer-2-426 (KGQRRK)		141
6mer-2-427 (RLQRRR)		147
6mer-2-428 (KVFLKK)		142
6mer-2-429 (RWRQRK)		123
6mer-2-430 (RWFRRR)		139
6mer-2-431 (KLILKR)		135
6mer-2-432 (KVVRKR)		148
6mer-2-433 (RWIQKR)		139
6mer-2-434 (RVIRRK)		154
6mer-2-435 (RWVYKR)		154
6mer-2-436 (KVLYKR)		148
6mer-2-437 (KQVCKK)		121
6mer-2-438 (RLLCRK)		131
6mer-2-439 (KWFSKR)		153
6mer-2-440 (KQLSKK)		153
6mer-2-441 (KSQRKR)		139
6mer-2-442 (RLVQKR)		139
6mer-2-443 (RQYCRR)		122
6mer-2-444 (RQRLKK)		141
6mer-2-445 (RLVCKR)		145

Substance	Binding affinity (6mer-2 Top sequence (Table 12)) [Ru]	Binding affinity (6mer-2 Top sequence) [Ru]
6mer-2-446 (RQLQKK)		153
6mer-2-447 (RVYTKK)		139
6mer-2-448 (RSFRRR)		128
6mer-2-449 (RGRCRR)		154
6mer-2-450 (RQRYRK)		123
6mer-2-451 (RGRCKK)		148
6mer-2-452 (KGLYKR)		146
6mer-2-453 (RLVRKK)		141
6mer-2-454 (RSVQKK)		133
6mer-2-455 (RWYSKR)		135
6mer-2-456 (KSVTKR)		147
6mer-2-457 (RRVYKR)		146
6mer-2-458 (RRFQRR)		122
6mer-2-459 (KLFSRK)		139
6mer-2-460 (RSQCRK)		139
6mer-2-461 (KSVCRR)		149
6mer-2-462 (KQICKR)		145
6mer-2-463 (KLLTRR)		124
6mer-2-464 (KSFRKK)		135
6mer-2-465 (KGVSKR)		122
6mer-2-466 (RLLTRR)		142
